Results as given in the supplement of paper PMC9112550, “Optimization of the antimicrobial peptide Bac7 by deep mutational scanning” (BMC Biology, 2022).

Test system: Escherichia coli TOP10
Test: shrunken log2 fold change of peptide-encoding DNA abundance (4.5 h post-induction vs induction); higher = less antimicrobial activity (less host growth inhibition)
Conditions: time post-induction: 4.5 h; library: site-saturation at positions 5, 18, 19, 20
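Note: peptides expressed intracellularly from a pBAD plasmid library in pooled LB shake-flask culture, induced with 0.3% L-arabinose, DNA abundance read by NGS, three biological replicates, DESeq2 with apeglm shrinkage.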

Row | Sequence | shrunken log2 fold change
1 | RRIRMRPPRLPRPRPRPQCQPRP | -0.0148
2 | RRIRRRPPRLPRPRPRPVALPRP | 0.225
3 | RRIRNRPPRLPRPRPRPFHLPRP | -0.147
4 | RRIRWRPPRLPRPRPRPCCMPRP | -0.196
5 | RRIRMRPPRLPRPRPRPSLPPRP | -0.0418
6 | RRIRMRPPRLPRPRPRPLNFPRP | -0.00433
7 | RRIRFRPPRLPRPRPRPGCNPRP | -0.292
8 | RRIRERPPRLPRPRPRPHKYPRP | -0.902
9 | RRIRHRPPRLPRPRPRPQYHPRP | -0.972
10 | RRIRARPPRLPRPRPRPPNEPRP | 0.716
11 | RRIRSRPPRLPRPRPRPLSAPRP | 0.234
12 | RRIRERPPRLPRPRPRPPLFPRP | 0.124
13 | RRIRFRPPRLPRPRPRPYTQPRP | -0.152
14 | RRIRARPPRLPRPRPRPRTEPRP | 0.391
15 | RRIRFRPPRLPRPRPRPGQCPRP | -0.114
16 | RRIRQRPPRLPRPRPRPHTSPRP | 0.0894
17 | RRIRVRPPRLPRPRPRPGDHPRP | -0.0257
18 | RRIRNRPPRLPRPRPRPDCGPRP | 0.0246
19 | RRIRERPPRLPRPRPRPAMIPRP | -0.0554
20 | RRIRRRPPRLPRPRPRPIMAPRP | 0.107
21 | RRIRARPPRLPRPRPRPKHMPRP | -0.158
22 | RRIRLRPPRLPRPRPRPECEPRP | 0.147
23 | RRIRHRPPRLPRPRPRPWEAPRP | -0.0553
24 | RRIRYRPPRLPRPRPRPWYIPRP | -0.00804
25 | RRIRCRPPRLPRPRPRPGRCPRP | 0.436

Row | Sequence | shrunken log2 fold change
26 | RRIRPRPPRLPRPRPRPEDRPRP | 0.0448
27 | RRIRRRPPRLPRPRPRPISKPRP | -0.198
28 | RRIRDRPPRLPRPRPRPHYQPRP | 0.0231
29 | RRIRVRPPRLPRPRPRPAREPRP | 0.254
30 | RRIRHRPPRLPRPRPRPQFQPRP | -0.511
31 | RRIRCRPPRLPRPRPRPYVRPRP | -0.0787
32 | RRIRDRPPRLPRPRPRPFTGPRP | -0.267
33 | RRIRTRPPRLPRPRPRPHEDPRP | -0.183
34 | RRIRPRPPRLPRPRPRPPANPRP | 0.418
35 | RRIRARPPRLPRPRPRPVLGPRP | 0.419
36 | RRIRARPPRLPRPRPRPPYSPRP | -0.0108
37 | RRIRVRPPRLPRPRPRPSLMPRP | -0.368
38 | RRIRSRPPRLPRPRPRPGQCPRP | 0.0202
39 | RRIRGRPPRLPRPRPRPDQKPRP | 0.0127
40 | RRIRTRPPRLPRPRPRPWPMPRP | 0.44
41 | RRIRWRPPRLPRPRPRPSNIPRP | -0.699
42 | RRIRNRPPRLPRPRPRPKYGPRP | -0.174
43 | RRIRWRPPRLPRPRPRPVEHPRP | -0.287
44 | RRIRFRPPRLPRPRPRPMVWPRP | 0.156
45 | RRIRCRPPRLPRPRPRPFCHPRP | -0.142
46 | RRIRRRPPRLPRPRPRPCYPPRP | -0.0837
47 | RRIRDRPPRLPRPRPRPKYQPRP | -0.452
48 | RRIRWRPPRLPRPRPRPPVEPRP | 0.392
49 | RRIRSRPPRLPRPRPRPWDSPRP | -0.729
50 | RRIRKRPPRLPRPRPRPCIQPRP | 0.0636

Row | Sequence | shrunken log2 fold change
51 | RRIRKRPPRLPRPRPRPSIIPRP | -0.221
52 | RRIRFRPPRLPRPRPRPFIQPRP | -0.707
53 | RRIRPRPPRLPRPRPRPMSYPRP | 0.296
54 | RRIRMRPPRLPRPRPRPTCKPRP | 2.25
55 | RRIRYRPPRLPRPRPRPGTKPRP | -0.0505
56 | RRIRERPPRLPRPRPRPIQIPRP | -0.103
57 | RRIRERPPRLPRPRPRPCERPRP | -0.0138
58 | RRIRHRPPRLPRPRPRPPVPPRP | 0.441
59 | RRIRWRPPRLPRPRPRPEAEPRP | 1.53
60 | RRIRPRPPRLPRPRPRPVMSPRP | 0.0198
61 | RRIRIRPPRLPRPRPRPHIEPRP | -0.0878
62 | RRIRIRPPRLPRPRPRPALFPRP | -0.139
63 | RRIRIRPPRLPRPRPRPQVQPRP | -0.195
64 | RRIRMRPPRLPRPRPRPKRPPRP | 0.85
65 | RRIRMRPPRLPRPRPRPLRGPRP | 2.15
66 | RRIRVRPPRLPRPRPRPNMVPRP | -0.201
67 | RRIRKRPPRLPRPRPRPQMCPRP | -0.0359
68 | RRIRRRPPRLPRPRPRPAYGPRP | 0.286
69 | RRIRCRPPRLPRPRPRPALNPRP | 0.179
70 | RRIRCRPPRLPRPRPRPIMFPRP | -0.388
71 | RRIRMRPPRLPRPRPRPKVCPRP | 0.0971
72 | RRIRCRPPRLPRPRPRPAMQPRP | 0.0643
73 | RRIRQRPPRLPRPRPRPPSYPRP | -0.0228
74 | RRIRKRPPRLPRPRPRPRVAPRP | 1.11
75 | RRIRERPPRLPRPRPRPIMNPRP | -1.02

Row | Sequence | shrunken log2 fold change
76 | RRIRSRPPRLPRPRPRPYREPRP | 0.0503
77 | RRIRGRPPRLPRPRPRPACIPRP | 0.666
78 | RRIRSRPPRLPRPRPRPSYNPRP | -0.759
79 | RRIRGRPPRLPRPRPRPDGPPRP | 0.155
80 | RRIRIRPPRLPRPRPRPPMWPRP | 0.00227
81 | RRIRFRPPRLPRPRPRPTLAPRP | 0.361
82 | RRIRYRPPRLPRPRPRPDIHPRP | -0.549
83 | RRIRGRPPRLPRPRPRPHPHPRP | 0.399
84 | RRIRGRPPRLPRPRPRPENMPRP | 0.325
85 | RRIRTRPPRLPRPRPRPYNCPRP | -0.168
86 | RRIRPRPPRLPRPRPRPYKVPRP | -0.338
87 | RRIRHRPPRLPRPRPRPWRFPRP | 0.0342
88 | RRIRSRPPRLPRPRPRPIHQPRP | -0.114
89 | RRIRARPPRLPRPRPRPTEAPRP | 0.453
90 | RRIRLRPPRLPRPRPRPSPPPRP | 0.198
91 | RRIRDRPPRLPRPRPRPCDYPRP | -0.0874
92 | RRIRARPPRLPRPRPRPYVNPRP | -0.235
93 | RRIRIRPPRLPRPRPRPPASPRP | 0.276
94 | RRIRDRPPRLPRPRPRPGPRPRP | 0.787
95 | RRIRTRPPRLPRPRPRPCLRPRP | 0.0877
96 | RRIRFRPPRLPRPRPRPCPLPRP | -0.183
97 | RRIRLRPPRLPRPRPRPIWHPRP | -0.0382
98 | RRIRERPPRLPRPRPRPRESPRP | -0.329
99 | RRIRMRPPRLPRPRPRPQHRPRP | 0.0767
100 | RRIRGRPPRLPRPRPRPQMSPRP | 0.395

Row | Sequence | shrunken log2 fold change
101 | RRIRLRPPRLPRPRPRPDCDPRP | 0.183
102 | RRIRGRPPRLPRPRPRPLHQPRP | 0.665
103 | RRIRDRPPRLPRPRPRPVLIPRP | -0.0161
104 | RRIRDRPPRLPRPRPRPEIYPRP | 0.0907
105 | RRIRCRPPRLPRPRPRPPADPRP | 0.95
106 | RRIRLRPPRLPRPRPRPEFKPRP | -0.4
107 | RRIRLRPPRLPRPRPRPWRRPRP | 0.0451
108 | RRIRHRPPRLPRPRPRPLRVPRP | 0.298
109 | RRIRFRPPRLPRPRPRPTETPRP | -0.0161
110 | RRIRIRPPRLPRPRPRPFEIPRP | -0.0373
111 | RRIRFRPPRLPRPRPRPFIDPRP | -0.389
112 | RRIRVRPPRLPRPRPRPQYAPRP | -0.193
113 | RRIRSRPPRLPRPRPRPTSIPRP | -0.102
114 | RRIRYRPPRLPRPRPRPYNEPRP | -1.3
115 | RRIRGRPPRLPRPRPRPWAGPRP | 0.188
116 | RRIRTRPPRLPRPRPRPQTWPRP | -0.18
117 | RRIRMRPPRLPRPRPRPGCYPRP | 0.135
118 | RRIRGRPPRLPRPRPRPGTTPRP | 0.379
119 | RRIRKRPPRLPRPRPRPCPPPRP | 0.0811
120 | RRIRDRPPRLPRPRPRPKIVPRP | -0.198
121 | RRIRPRPPRLPRPRPRPTPVPRP | 0.379
122 | RRIRVRPPRLPRPRPRPVRCPRP | 0.145
123 | RRIRCRPPRLPRPRPRPQSWPRP | 0.69
124 | RRIRCRPPRLPRPRPRPFWNPRP | -0.278
125 | RRIRLRPPRLPRPRPRPQRQPRP | 0.316
